This note sets out measurements from article PMC4227782.

For orientation: Kd means a measure of binding affinity in units of concentration.

This data set deals with T1, MBNL1 (2-260) (UniProt Q9NR56).
T1 sequence: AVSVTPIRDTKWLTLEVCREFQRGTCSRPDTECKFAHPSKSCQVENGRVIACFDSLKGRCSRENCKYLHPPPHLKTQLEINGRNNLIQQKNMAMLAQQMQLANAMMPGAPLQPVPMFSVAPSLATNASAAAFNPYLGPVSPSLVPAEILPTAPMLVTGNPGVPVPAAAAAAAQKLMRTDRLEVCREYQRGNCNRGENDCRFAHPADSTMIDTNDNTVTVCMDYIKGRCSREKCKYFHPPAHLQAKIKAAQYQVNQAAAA
The experiment in a line: EMSA. The following applies: 5 mM Mg2+, 0.1 mg/ml heparin, 175 mM NaCl, 20 mM Tris pH 7.5, 1 mM BME, 10% glycerol, 5 mM MgCl2, 0.1 mg/ml heparin, 2 mg/ml BSA, 0.02% xylene cyanol, 0.05% bromophenol blue, 20 min at room …. On the technique in general: A gel shift assay detects complexes by their altered migration in electrophoresis.

Turning to CUGCUGCUGCUG [4-2'Ome(CUG)4], under “4 2'-O-methyl, positions only in Fig 1B”, the Kd stood at 1000 nM.
For the sequence CUGCUGCUGCUG [1Ψ(CUG)4], under “1 pseudouridine replacing U, position only in Fig 1B”, the Kd stood at 1000 nM.
For the sequence CUGCUGCUGCUG [4Ψ(CUG)4], the Kd (Kd immeasurable, 4 pseudouridines replacing U) is > 5000 nM.
For the sequence CUGCUGCUGCUG [1-2'Ome(CUG)4], the Kd (1 2'-O-methyl, position only in Fig 1B) worked out at 650 nM.
CUGCUGCUGCUG [(CUG)4]: the Kd was determined as 300 nM.
Turning to CUGCUGCUGCUG [2-2'Ome(CUG)4], the Kd (2 2'-O-methyl, positions only in Fig 1B) is 890 nM.
As for CUGCUGCUGCUG [2Ψ(CUG)4], the Kd (2 pseudouridines replacing U, positions only in Fig 1B) turned out to be 6000 nM.
